Molecular target: GST-MoMkk1 (Magnaporthe oryzae) (UniProt G4N6Z6)
Test: MST

Substance	Kd [nM]
His-MoPtc1 (enzyme)	1050
His-MoPtc2 (enzyme)	2270

— PMC9276948
